For data set [1], the target named is T1, SULT1A3 (Homo sapiens, UniProt P0DMM9, K234N).
T1 construct: made in house; host or cells: COS-1 cells transfected with pCR3.1 construct; high speed supernatant cytosol, unpurified
As to the kind of experiment: SULT1A3 enzyme activity assay (sulfate conjugation of dopamine with PAPS) in COS-1 cytosol preparations. The following applies: recombinant allozyme expressed in COS-1 cells, dopamine 40 μM. It counts as biochemical. An excerpt: COS-1 cell expression: Two different SULT1A3 expression constructs were made using the pCR3.1 expression vector. One of the constructs was designed to express the SULT1A3 Lys234Asn allozyme, while the remaining construct was designed to express a wild type SULT1A3 polypeptide. All SULT1A3 cDNA sequences containing SULT1A3 nucleotide sequence variants used to create the expression constructs were created by site directed mutagenesis using the method described by Ho et al. (1989) Gene 77:51-59. Each SULT1A3 cDNA was amplified by PCR and subcloned into the eukaryotic expression vector pCR3.1 (Promega, Madison, Wis.). […]
Enzyme Assays: β-galactosidase activity in each of the COS-1 HSS preparations was measured with the β-galactosidase Enzyme Assay System (Promega, Madison, Wis.). […] The protein concentration of each recombinant protein preparation was determined by the dye-binding method of Bradford with bovine serum albumin (BSA) as a standard.
SULT1A3 enzyme activity was measured with an assay that involves sulfate conjugation of a sulfate acceptor substrate, dopamine (40 μM), in the presence of the sulfate donor 3′-phosphoadenosine-5′-phosphosulfate (PAPS). […] Enzyme activity was expressed as nanomoles (nmoles) of sulfate conjugated product formed per hour of incubation. […]

The target in data set [2] is T2, SULT1A3 (Homo sapiens, UniProt P0DMM9).
T2 construct: made in house; host or cells: COS-1 cells transfected with pCR3.1 construct; high speed supernatant cytosol, unpurified
The data set is described as follows: Substrate kinetic studies, apparent Km for dopamine and PAPS. It counts as biochemical. The settings on record: recombinant enzyme. On the procedure: SULT1A3 enzyme activity was measured with an assay that involves sulfate conjugation of a sulfate acceptor substrate, dopamine (40 μM), in the presence of the sulfate donor 3′-phosphoadenosine-5′-phosphosulfate (PAPS). […] Cytosol from COS-1 cells transfected with empty pCR3.1 were used to correct for endogenous SULT activity. Because SULTs display profound substrate inhibition, a range of dopamine concentrations were tested to ensure that the assays were performed at a dopamine concentration that yielded maximal activity for the Lys234Asn allozyme. Enzyme activity was expressed as nanomoles (nmoles) of sulfate conjugated product formed per hour of incubation. Apparent Km values for PAPS were determined in the presence of dopamine, with PAPS concentrations that varied from 0.035 μM to 0.5 μM and dopamine concentrations that varied from 2.5 μM to 80 μM.
Data Analysis: Apparent Km values were calculated by using the method of Wilkinson with a computer program written by Cleland. Wilkinson, Biochem. J., 80:324-332 (1961); and Cleland, Nature, 198:463-365 (1963). Statistical comparisons of data were performed by ANOVA with the StatView program, version 4.5 (Abacus Concepts, Inc., Berkeley, Calif.). Linkage analysis was performed after all DNA samples had been genotyped at each of the 6 polymorphic sites observed. D′ values, a quantitative method for reporting linkage data that is independent of allele frequency (Hartl and Clark, Principles of Population Genetics, 3rd ed. (1997) Sinauer Associates, Inc., (Sunderland, Mass.), pp. 96-106; and Hedrick, Genetics of Populations, 2nd ed. (2000) Jones and Bartlett (Sudbury, Mass.), pp. 396-405), then were calculated. The genotype data also were used to assign inferred haplotypes using a program based on the E-M algorithm (Long et al. (1995) Am. J. Hum. Genet. 56:799-810; and Excoffier and Slatkin (1995) Mol. Biol. Evol. 12:921-927). Unambiguous haplotype assignment also was possible on the basis of genotype for samples that contained no more than one heterozygous polymorphism.
Alterations in amino acid sequence can alter enzyme substrate affinity and/or catalytic efficiency. Substrate kinetic studies were conducted to determine whether the Lys234Asn allozyme differed from the WT SULT1A3 protein in these aspects. A series of dopamine and PAPS concentrations were used to estimate apparent Km values for recombinant wild type SULT1A3 and for the Lys234Asn variant allozyme.

Setting [3] is: PAPS 0.035 μM to 0.5 μM in the presence of dopamine, read-out: apparent Km for PAPS.
The mark [4] stands for this setting: dopamine 2.5 μM to 80 μM, read-out: apparent Km for dopamine.

Changes are numbered by the printed parent chain. Read-outs that look alike come from different tables or passages of the source.

T2 sequence (P0DMM9 whole entry): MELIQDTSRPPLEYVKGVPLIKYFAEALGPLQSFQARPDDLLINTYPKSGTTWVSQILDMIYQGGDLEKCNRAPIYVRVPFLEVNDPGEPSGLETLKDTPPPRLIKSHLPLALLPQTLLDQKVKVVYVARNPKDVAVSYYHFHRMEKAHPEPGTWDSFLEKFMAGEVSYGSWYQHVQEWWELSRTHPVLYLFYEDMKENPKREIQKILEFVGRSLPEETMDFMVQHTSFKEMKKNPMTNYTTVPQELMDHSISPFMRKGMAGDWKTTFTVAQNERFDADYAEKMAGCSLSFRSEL

B1: Lys234Asn: SULT1A3 polypeptide having an asparagine at amino acid residue 234 (allozyme encoded by thymine at nucleotide 702) (protein, listed as Homo sapiens)
chain: MELIQDTSRPPLEYVKGVPLIKYFAEALGPLQSFQARPDDLLINTYPKSGTTWVSQILDMIYQGGDLEKCNRAPIYVRVPFLEVNDPGEPSGLETLKDTPPPRLIKSHLPLALLPQTLLDQKVKVVYVARNPKDVAVSYYHFHRMEKAHPEPGTWDSFLEKFMAGEVSYGSWYQHVQEWWELSRTHPVLYLFYEDMKENPKREIQKILEFVGRSLPEETMDFMVQHTSFKEMKNNPMTNYTTVPQELMDHSISPFMRKGMAGDWKTTFTVAQNERFDADYAEKMAGCSLSFRSEL
Turning to B1, the “enzyme activity as percentage of WT activity” value in data set [1] was 27%. For the same molecule, in data set [1] (relative to WT SULT1A3), the “reduction in enzyme activity” value stood at 73%. Besides, the Michaelis-Menten constant (Km) is 0.107 µM in data set [2] (setting [3]) and 9.8 µM in data set [2] (setting [4]).

B2: WT: reference SULT1A3 polypeptide (SEQ ID NO:4) that contains a lysine at amino acid residue 234 (protein, listed as Homo sapiens)
chain: B1 chain with N234K
In the case of B2, the Km in data set [2] (setting [3]) came to 0.112 µM; in data set [2] (setting [4]), 10.4 µM.
